The source of these data is patent US20200289563A1 (WUXI BIOLOGICS IRELAND, published 2020).

For experiment [1], the target named is T1, human CD19 (human, UniProt P15391 20-556).
T1 construct: whole, on cells; also called Cluster of Differentiation 19; hPro1
T1 sequence (looked up): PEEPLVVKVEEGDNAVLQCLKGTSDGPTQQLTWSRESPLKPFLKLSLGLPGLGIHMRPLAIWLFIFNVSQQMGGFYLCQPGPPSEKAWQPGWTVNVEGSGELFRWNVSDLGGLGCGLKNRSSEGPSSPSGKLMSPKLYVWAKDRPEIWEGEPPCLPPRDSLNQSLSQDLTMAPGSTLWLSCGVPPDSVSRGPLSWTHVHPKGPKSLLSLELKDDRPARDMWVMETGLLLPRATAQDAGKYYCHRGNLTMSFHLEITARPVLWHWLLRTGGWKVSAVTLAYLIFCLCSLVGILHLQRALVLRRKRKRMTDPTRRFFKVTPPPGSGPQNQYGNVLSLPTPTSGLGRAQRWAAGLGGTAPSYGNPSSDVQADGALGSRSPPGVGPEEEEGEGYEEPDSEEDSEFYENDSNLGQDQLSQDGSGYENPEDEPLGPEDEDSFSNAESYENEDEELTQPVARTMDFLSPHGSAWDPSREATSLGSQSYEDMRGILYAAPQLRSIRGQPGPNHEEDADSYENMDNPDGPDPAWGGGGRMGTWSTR
The experiment is described as follows: flow cytometry on CD19 transfected CHO-K1 cells, Scatchard analysis. The protocol: The CD19 transfected CHO-K1 cells or Ramos cells were plated in a 96-well plates (BD) at a density of 5×10⁴ cells/well. Antibodies to be tested were serially diluted in the staining buffer (1×PBS/1% BSA) and incubated with cells at 4° C. for 1 hr.
The affinity of selected candidate antibodies were tested on CD19 transfected CHO-K1 cell by flow cytometry.
Background: Flow cytometry measures light scatter and fluorescence of single cells or particles in a stream.

The target of experiment [2] is T1, human CD19. Description: flow cytometry on Ramos cells. How it is done: The Ramos cells were plated in 96-well U-bottom plates (BD) at a density of 1×10⁵ cells/well. The purified antibody were serially diluted in the staining buffer (1×PBS/1% BSA) and incubated with cells for 1 hr at 4° C. The cells were then washed twice with staining buffer (BSA/1×PBS). […] The cells were then washed twice and re-suspended in 100 μL staining buffer. The fluorescence intensity was measured by flow cytometry (BD Canto II) and analyzed by FlowJo.
Binding activity of the selected subclones were tested on Ramos cell by flow cytometry (FIG. 4).

The next experiment concerns the target T2, cynomolgus monkey CD19 (cynomolgus monkey, UniProt A0A2K5W8L9 20-557).
T2 construct: whole, on cells; also called cyno CD19; cPro1
T2 sequence: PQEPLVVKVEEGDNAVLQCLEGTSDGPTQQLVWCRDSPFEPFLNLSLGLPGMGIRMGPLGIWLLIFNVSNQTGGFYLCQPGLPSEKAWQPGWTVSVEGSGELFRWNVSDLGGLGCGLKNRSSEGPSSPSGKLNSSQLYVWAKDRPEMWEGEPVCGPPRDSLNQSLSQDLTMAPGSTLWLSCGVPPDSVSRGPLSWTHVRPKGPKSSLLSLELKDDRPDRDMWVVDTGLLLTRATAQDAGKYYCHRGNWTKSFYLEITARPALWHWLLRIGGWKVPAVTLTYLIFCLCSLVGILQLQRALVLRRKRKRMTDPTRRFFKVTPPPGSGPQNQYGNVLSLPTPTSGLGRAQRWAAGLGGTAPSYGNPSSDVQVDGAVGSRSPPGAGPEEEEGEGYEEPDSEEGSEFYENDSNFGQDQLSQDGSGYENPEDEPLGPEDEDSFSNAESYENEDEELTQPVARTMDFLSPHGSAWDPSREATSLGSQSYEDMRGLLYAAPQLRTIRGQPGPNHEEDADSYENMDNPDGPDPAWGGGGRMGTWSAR
The experiment is described as follows: flow cytometry on cynomolgus CD19 transfected CHO-K1 cells. The protocol:
The cynomolgus CD19 transfected CHO-K1 cells were plated in 96-well U-bottom plates (BD) at a density of 1×10⁵ cells/well. The purified antibody were serially diluted in the staining buffer (1×PBS/1% BSA) and incubated with cells for 1 hr at 4° C. The cells were then washed twice with staining buffer (BSA/1×PBS). […] The cells were then washed twice and re-suspended in 100 μL staining buffer. The fluorescence intensity was measured by flow cytometry (BD Canto II) and analyzed by FlowJo.
The binding activity to cynomogus monkey CD19 of candidate antibodies was evaluated using cynomolgus monkey CD19 transfected CHO-K1 cell line (FIG. 5).

The target in experiment [3] is T1, human CD19. Description: cell-based or functional assay.
For experiment [4], the target named is T1, human CD19. The experiment is described as follows: FACS on Ramos cells, Scatchard analysis. The protocol:
KD was calculated using Scatchard Analysis.

What is called Kd is the free concentration of one partner at which half of the binding sites on the other are occupied at equilibrium, for simple one-to-one binding. For orientation: EC50 means the midpoint of the concentration-response curve.

B1: WBP7011-4.87.6 (antibody, V domains shown)
VH: QVQLQQSGAELVRPGSSVKISCKASGYAFSTYWMNWVKQRPGQGLEWIGQIYPGDDDTKYNGKFKGKASLTADKSSSTAYMQLISLTSEDSAVYFCARRYFRYDYWYSDVWGAGTTVTVTS
VL: DIQMTQTTSSLSASLGDRVTISCRASQDISNYLNWYQQKPDGTVKLLIYYTSRLHSGVPARFSGSGSGTDYSLTISNLEQEDIATYFCHQGNTLPLTFGAGTKLELK
B1 showed a Kd in the experiment with human CD19 [1] of 0.0955 nM. Further, the EC50 came to 0.1 nM with human CD19 [2] and 0.285 nM with cynomolgus monkey CD19. For the same molecule, the “EC50 of cell viability, Fab-Zap assay on Ramos cells (internalization)” value in the experiment with human CD19 [3] was 0.0085 nM.

B2: WBP7011-4.34.11-z1-m5-IgG1k (antibody, V domains shown)
VH: QVQLVQSGAEVKKPGSSVKVSCKASGYTFTDYVIHWVRQAPGQGLEWMGYFNPYNDGTEYNEKFKARVTITADKSTSTAYMELSSLRSEDTAVYYCARGPYYYGSSPFDYWGQGTTVTVSS
VL: DIVMTQTPLSLPVTPGEPASISCRSSQSLENSNHNTYINWYLQKPGQSPQLLIYRVSKRFSGVPDRFSGSGSGTDFTLKISRVEAEDVGVYYCHQVTHVPYTFGQGTKLEIK
notes: human IgG1, kappa by its name
Molecule B2 returned a Kd in the experiment with human CD19 [4] of 0.23 nM.

B3: WBP7011_4.225.7 (antibody, mouse IgG2a, V domains shown)
VH: EIQLQQSGPELVKPGASVKVSCKASGYAFTSYNMYWVKQSHGKSLEWIGYIDPYNGDTTYNQKFKGKATLTVDKSSSTAYMHLNSLTSEDSAVYYCLTTAYAMDYWGQGTSVTVSS
VL: QIVLTQSPAIMSASLGEEITLTCSASSTVNYMHWYQQKSGTSPKLLIYSTSNLASGVPSRFSGSGSGTFYSLTIRSVEAEDAADYYCHQWSSYPYTFGGGTKLEIK
notes: also called W7011-4.225.7
Turning to B3, the Kd in the experiment with human CD19 [1] is 0.735 nM. Moreover, the EC50 in the experiment with human CD19 [2] was determined as 0.45 nM; with cynomolgus monkey CD19, 1.77 nM. Further, the “EC50 of cell viability, Fab-Zap assay on Ramos cells (internalization)” value in the experiment with human CD19 [3] came to 0.015 nM.

B4: WBP7011-4.87.6-z1-IgG1k (N-S) (antibody, V domains shown)
VH: QVQLVQSGAEVKKPGASVKVSCKASGYAFSTYWMNWVRQAPGQGLEWMGQIYPGDDDTKYSGKFKGRVTITADKSTSTAYMELSSLRSEDTAVYYCARRYFRYDYWYSDVWGQGTTVTVSS
VL: DIQMTQSPSSLSASVGDRVTITCRASQDISNYLNWYQQKPGKVPKLLIYYTSRLHSGVPSRFSGSGSGTDFTLTISSLQPEDVATYYCHQGNTLPLTFGQGTKLEIK
notes: human IgG1, kappa by its name
As to B4, the affinity with human CD19 [4], expressed as Kd, was 0.25 nM.
